Biological target: rabbit muscle F-actin (polymerized rabbit muscle actin) (rabbit) (UniProt P68135)
Test: co-sedimentation

stoichiometry N (actin monomers per GST.p80)	Substance	fold increase of affinity against GST.p80 [fold]
14	GST.p80 fusion protein (cortactin p80 residues 55-526) (domain or fragment)	
	bacterially expressed cortactin (p80 residues 55-526) after removal of GST with thrombin (domain or fragment)	2

Reference: article PMC2119758
